{"source": "patent US20250154284A1", "about": "(INMAGENE PTE, published 2025)", "binders": {"B1": {"name": "anti-MASP-2 antibody clone 3E10 (chimeric 3E10) (antibody, V domains shown)", "VH": "EVQLQQSGPGLVQSSQSLSITCTVSGFSLTTYGVHWVRLSPGKGLEWLGVIWKGGSTDYNAAFMSRLSITKDNSKSEVFFQMNSLQGDDSAIYYCVKTLELRRRDYYAMDYWGQGTSVTVSS", "VL": "DIVMTQTTSSLAVSAGEKVTMSCKSSQNILYSSNQKNLLAWYQQKPGQSPKLLIYWASTRESGVPNRFTGSGSGTDFSLTINSVQPEDLAVYYCHQYFSSYTFGGGTKLEMK", "notes": "Mouse variable regions; tested as a 'chimeric' antibody; also called 3E10-mus"}, "B2": {"name": "3E10-hu-9 (antibody, V domains shown)", "VH": "QVQLVESGGGVVQPGRSLRLSCAASGFSLTTYGVHWVRQAPGKGLEWLGVIWKGGSTDYNAAFMSRLTISKDNSKSTVYIQMNSLRAEDTAVYYCAKTLELRRRDYYAMDYWGQGTLVTVSS", "VL": "DIVMTQSPDSLAVSLGERATINCKSSQNILYSSNQKNLLAWYQQKPGQPPKLLIYWASTRESGVPDRFSGSGSGTDFTLTISSLQAEDVAVYYCHQYFSSYTFGQGTKLEIK", "notes": "also called humanized 3E10 clone with 3E10-hu-VH-9"}, "B3": {"name": "3E10-hu-11 (antibody, V domains shown)", "VH": "QVQLVESGGGVVQPGRSLRISCAASGFSLTTYGVHWVRQAPGKGLEWLGVIWKGGSTDYNAAFMSRLTISKDNSKSTVYIQMNSLRAEDTAVYYCVKTLELRRRDYYAMDYWGQGTLVTVSS", "VL": "DIVMTQSPDSLAVSLGERATINCKSSQNILYSSNQKNLLAWYQQKPGQPPKLLIYWASTRESGVPDRFSGSGSGTDFTLTISSLQAEDVAVYYCHQYFSSYTFGQGTKLEIK", "notes": "also called humanized 3E10 clone with 3E10-hu-VH-11"}, "B4": {"name": "3E10-hu-12 (antibody, V domains shown)", "VH": "QVQLVESGGGVVQPGRSLRISCAVSGFSLTTYGVHWVRQAPGKGLEWLGVIWKGGSTDYNAAFMSRLTISKDNSKSTVYIQMNSLRAEDTAVYYCVKTLELRRRDYYAMDYWGQGTLVTVSS", "VL": "DIVMTQSPDSLAVSLGERATINCKSSQNILYSSNQKNLLAWYQQKPGQPPKLLIYWASTRESGVPDRFSGSGSGTDFTLTISSLQAEDVAVYYCHQYFSSYTFGQGTKLEIK", "notes": "also called humanized 3E10 clone with 3E10-hu-VH-12"}, "B5": {"name": "3E10-hu-6 (antibody, V domains shown)", "VH": "QVQLVESGGGVVQPGRSLRLSCAASGFTLSTYGVHWVRQAPGKGLEWLGVIWKGGSTDYNAAFMSRLTISKDNSKNTVYIQMNSLRAEDTAVYYCAKTLELRRRDYYAMDYWGQGTLVTVSS", "VL": "DIVMTQSPDSLAVSLGERATINCKSSQNILYSSNQKNLLAWYQQKPGQPPKLLIYWASTRESGVPDRFSGSGSGTDFTLTISSLQAEDVAVYYCHQYFSSYTFGQGTKLEIK", "notes": "also called humanized 3E10 clone with 3E10-hu-VH-6"}, "B6": {"name": "3E10-hu-0 (antibody, V domains shown)", "VH": "QVQLVESGGGVVQPGRSLRLSCAASGFTFSTYGVHWVRQAPGKGLEWVAVIWKGGSTDYNAAFMSRFTISRDNSKNTIYIQMNSLRAEDTAVYYCAKTLELRRRDYYAMDYWGQGTLVTVSS", "VL": "DIVMTQSPDSLAVSLGERATINCKSSQNILYSSNQKNLLAWYQQKPGQPPKLLIYWASTRESGVPDRFSGSGSGTDFTLTISSLQAEDVAVYYCHQYFSSYTFGQGTKLEIK", "notes": "also called humanized 3E10 clone with 3E10-hu-VH-0"}, "B7": {"name": "3E10-hu-7-1 (antibody, V domains shown)", "VH": "QVQLVESGGGVVQPGRSLRLSCAASGFTLSTYGVHWVRQAPGKGLEWLGVIWKGGSTDYNAAFMSRLTISKDNSKSTVYIQMNSLRAEDTAVYYCAKTLELRRRDYYAMDYWGQGTLVTVSS", "VL": "DIVMTQSPDSLAVSLGERATINCKSSQNILYSSNQKNLLAWYQQKPGQPPKLLIYWASTRESGVPDRFSGSGSGTDFTLTISSLQAEDVAVYYCHQYFSSYTFGQGTKLEIK", "notes": "also called humanized 3E10 clone with 3E10-hu-VH-7-1"}, "B8": {"name": "3E10-hu-7-2 (antibody, V domains shown)", "VH": "QVQLVESGGGVVQPGRSLRLSCAASGFTLSTYGVHWVRQAPGKGLEWLGVIWKGGSTDYNAAFMSRLTISKDNSKNTVYIQMNSLRAEDTAVYYCVKTLELRRRDYYAMDYWGQGTLVTVSS", "VL": "DIVMTQSPDSLAVSLGERATINCKSSQNILYSSNQKNLLAWYQQKPGQPPKLLIYWASTRESGVPDRFSGSGSGTDFTLTISSLQAEDVAVYYCHQYFSSYTFGQGTKLEIK", "notes": "also called humanized 3E10 clone with 3E10-hu-VH-7-2"}, "B9": {"name": "3E10-hu-10 (antibody, V domains shown)", "VH": "QVQLVESGGGVVQPGRSLRLSCAASGFSLTTYGVHWVRQAPGKGLEWLGVIWKGGSTDYNAAFMSRLTISKDNSKSTVYIQMNSLRAEDTAVYYCVKTLELRRRDYYAMDYWGQGTLVTVSS", "VL": "DIVMTQSPDSLAVSLGERATINCKSSQNILYSSNQKNLLAWYQQKPGQPPKLLIYWASTRESGVPDRFSGSGSGTDFTLTISSLQAEDVAVYYCHQYFSSYTFGQGTKLEIK", "notes": "also called humanized 3E10 clone with 3E10-hu-VH-10"}, "B10": {"name": "3E10-hu-8 (antibody, V domains shown)", "VH": "QVQLVESGGGVVQPGRSLRLSCAASGFSLTTYGVHWVRQAPGKGLEWLGVIWKGGSTDYNAAFMSRLTISKDNSKNTVYIQMNSLRAEDTAVYYCAKTLELRRRDYYAMDYWGQGTLVTVSS", "VL": "DIVMTQSPDSLAVSLGERATINCKSSQNILYSSNQKNLLAWYQQKPGQPPKLLIYWASTRESGVPDRFSGSGSGTDFTLTISSLQAEDVAVYYCHQYFSSYTFGQGTKLEIK", "notes": "also called humanized 3E10 clone with 3E10-hu-VH-8"}}, "data": [{"molecular_target": "T1, recombinant human MASP-2 protein (human, UniProt O00187 16-686)", "T1 sequence (O00187 16-686)": "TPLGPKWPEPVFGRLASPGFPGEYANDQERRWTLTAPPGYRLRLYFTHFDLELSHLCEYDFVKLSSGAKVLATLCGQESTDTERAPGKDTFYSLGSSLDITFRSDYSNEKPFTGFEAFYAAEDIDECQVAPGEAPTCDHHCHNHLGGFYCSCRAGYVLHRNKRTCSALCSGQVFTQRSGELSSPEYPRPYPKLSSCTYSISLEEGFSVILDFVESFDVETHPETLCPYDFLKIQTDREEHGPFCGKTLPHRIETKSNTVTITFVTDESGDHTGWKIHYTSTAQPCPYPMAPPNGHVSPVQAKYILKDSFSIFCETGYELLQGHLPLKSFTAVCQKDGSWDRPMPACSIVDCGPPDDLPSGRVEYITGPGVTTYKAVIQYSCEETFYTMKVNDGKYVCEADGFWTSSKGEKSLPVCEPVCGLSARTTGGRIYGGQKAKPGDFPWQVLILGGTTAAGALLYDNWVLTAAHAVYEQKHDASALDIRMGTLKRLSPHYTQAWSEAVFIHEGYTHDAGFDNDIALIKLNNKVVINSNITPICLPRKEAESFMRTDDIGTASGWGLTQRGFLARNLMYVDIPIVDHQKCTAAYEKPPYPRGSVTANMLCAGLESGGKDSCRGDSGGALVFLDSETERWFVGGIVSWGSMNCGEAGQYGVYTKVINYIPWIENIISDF", "assay": "cell-based or functional assay", "units": {"IC50 of C3 activation (mannan-coated plate, human serum)": "ng/mL", "IC50 of C4 activation (mannan-coated plate, human serum)": "ng/mL", "IC50 of C4 activation in 5% human serum": "ng/mL", "IC50 of C4 activation in 10% human serum (methods say 25%)": "µg/mL", "IC50 of C4 activation in 50% human serum": "µg/mL", "IC50 of MAC activation (mannan-coated plate, human serum)": "ng/mL"}, "values": [{"binder": "B1", "IC50 of C3 activation (mannan-coated plate, human serum)": 4.14, "IC50 of C4 activation (mannan-coated plate, human serum)": 3.6, "IC50 of C4 activation in 5% human serum": 8.26, "IC50 of C4 activation in 10% human serum (methods say 25%)": 0.0308, "IC50 of C4 activation in 50% human serum": 0.0673, "IC50 of MAC activation (mannan-coated plate, human serum)": 3.27}]}, {"molecular_target": "T1, recombinant human MASP-2 protein", "assay": "BLI (Gator), antibody on Protein A biosensor, recombinant MASP-2 25-200 nM, 30 C", "procedure": "Recombinant MASP-2 protein was diluted with kinetics buffer to get a concentration gradient: 200 nM, 100 nM, 50 nM, 25 nM, and 0 nM (reference control). Antibodies were immobilized onto Protein A biosensor after balance. A baseline was detected for 60 seconds. Then, antibody-antigen association was detected for 120 seconds to obtain data for Kₒₙ, followed by detection of dissociation in kinetic buffer for 120 seconds to obtain data for Koff. The regeneration of biosensors was done in buffer 10 mM glycine, pH2.0. All the kinetics data were collected at 30° C. Data were acquired with Gator Bioanalysis System.", "units": {"Kd": "nM", "koff": "s⁻¹", "kon": "M⁻¹ s⁻¹"}, "values": [{"binder": "B1", "Kd": "< 0.1", "koff": "< 1e-06", "kon": 29600}]}, {"molecular_target": "T1, recombinant human MASP-2 protein", "assay": "BLI (Gator), antibody on Protein A biosensor, human MASP-2, 30 C", "procedure": "The assay was performed at 30° C. and the kinetics buffer was 1×PBS (136 mM NaCl, 8 mM […], 2 mM KH₂PO₄, 2.6 mM KCl) with 0.1% BSA and 0.005% Tween-20, pH7.4. Diluted antibodies and human MASP-2 were added to the corresponding well. After loading human MASP-2, biosensor detected the association and dissociation of antibodies. The regeneration of biosensors was in buffer 10 mM glycine, pH2.0.", "units": {"Kd": "nM", "koff": "s⁻¹", "kon": "M⁻¹ s⁻¹"}, "values": [{"binder": "B1", "Kd": 15.4, "koff": 0.00113, "kon": 73500}, {"binder": "B2", "Kd": 12.8, "koff": 0.000952, "kon": 74200}, {"binder": "B3", "Kd": 13.7, "koff": 0.00107, "kon": 77700}, {"binder": "B4", "Kd": 14.3, "koff": 0.00103, "kon": 72300}, {"binder": "B5", "Kd": 15.2, "koff": 0.000985, "kon": 64600}, {"binder": "B6", "Kd": 26.3, "koff": 0.00102, "kon": 38700}, {"binder": "B7", "Kd": 17.3, "koff": 0.00114, "kon": 65700}, {"binder": "B8", "Kd": 14.7, "koff": 0.00107, "kon": 72900}, {"binder": "B9", "Kd": 15.3, "koff": 0.00111, "kon": 72800}, {"binder": "B10", "Kd": 15.6, "koff": 0.00107, "kon": 68600}]}]}
